Tests used:
[1] = target: T1, H-Cys(Npys)-Trp-Lys-Lys-Lys-Pro-Ala-Pro-Phe-Ala-Ala-Ala-LC-PEGA resin
T1 chain: CWKKKPAPFAAA

[2] = target: T2, EuMac-Peptide-PEGA beads (Formula XII)
T2 chain: CWKKKPAPFAAA

B1: Proteinase K Molecular Biology, SIGMA Catalog No. P-4850 (protein)
chain: AAQTNAPWGLARISSTSPGTSTYYYDESAGQGSCVYVIDTGIEASHPEFEGRAQMVKTYYYSSRDGNGHGTHCAGTVGSRTYGVAKKTQLFGVKVLDDNGSGQYSTIIAGMDFVASDKNNRNCPKGVVASLSLGGGYSSSVNSAAARLQSSGVMVAVAAGNNNADARNYSPASEPSVCTVGASDRYDRRSSFSNYGSVLDIFGPGTSILSTWIGGSTRSISGTSMATPHVAGLAAYLMTLGKTTAASACRYIADTANKGDLSNIPFGTVNLLAYNNYQA
B1 was tested. Which “absorbance of supernatant (275 nm and 350 nm peaks) after hydrolysis at pH 7.1, 15.1 ug/mL Proteinase K” value [1] did it give?
Its value is “the release of the free peptide was much greater for the Proteinase K sample”.

What about the “absorbance of supernatant with time after hydrolysis at pH 8.01, 14.2 and 28.4 ug/mL Proteinase K” value [1] of the same protein?
Its value is “demonstrate that Proteinase K cleaves a peptide from the Peptide-PEGA-Beads”.

What about the “ratio of cleaved peptide, 28.4 vs. 14.2 ug/mL Proteinase K (absorbance at 280 nm)” value [1] of the same protein?
Its value is “The doubling, of the enzyme concentration resulted in an approximately 1.3 fold increase in cleaved peptide”.

What about the “absorbance of supernatant at 280 nm after hydrolysis at pH 8.0, 25.5 ug/mL Proteinase K” value [2] of the same protein?
Its value is “the Proteinase K did release a cleavage product containing tryptophan from the EuMac-Peptide-PEGA-Beads”.

And the “luminescence of beads before and after 115 min of Proteinase K hydrolysis” value [2]?
Its value is “The drastic difference in luminescence before and after Proteinase K hydrolysis demonstrated that the EuMac-labeled part of the peptide was released from the bead”.

— patent US8048659
